T1: full length PLXDC1 (PLXDC1-Full) (Homo sapiens, UniProt Q8IUK5)
T1 construct: expressed in transfected cells
T1 sequence (Q8IUK5 19-500): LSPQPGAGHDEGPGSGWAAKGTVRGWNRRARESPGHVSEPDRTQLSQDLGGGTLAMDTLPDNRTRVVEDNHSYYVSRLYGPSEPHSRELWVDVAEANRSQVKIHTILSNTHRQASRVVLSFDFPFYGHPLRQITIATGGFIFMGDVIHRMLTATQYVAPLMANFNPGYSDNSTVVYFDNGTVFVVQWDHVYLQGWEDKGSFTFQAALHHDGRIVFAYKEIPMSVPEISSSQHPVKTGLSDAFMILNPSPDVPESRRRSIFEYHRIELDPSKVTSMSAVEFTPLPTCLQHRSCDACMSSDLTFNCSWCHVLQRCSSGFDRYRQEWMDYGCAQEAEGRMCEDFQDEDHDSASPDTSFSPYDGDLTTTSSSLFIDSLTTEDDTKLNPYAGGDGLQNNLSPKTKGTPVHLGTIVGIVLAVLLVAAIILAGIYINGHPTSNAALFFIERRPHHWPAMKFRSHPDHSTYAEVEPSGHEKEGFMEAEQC


Assays:
[1] = target: T1, full length PLXDC1 (PLXDC1-Full); assay: Domain A binding specificity: binding to full length PLXDC1 expressed in transfected cells; conditions: for binding to PLXDC1: antibodies of Table 3 tested for ability to bind Domain A; for binding to full length PLXDC1 (PLXDC1-Full): transfected into a cell line that does not express PLXDC1, FIG. 3-4
Source text: (§1) The specific binding to Domain A of a PLXDC protein can be tested with a method described herein. In some embodiments, the method employs a PLXDC with the Domain A deleted. […] An example is Compound 369 as described above.
(§2) The Domain A-binding antibodies are 3-C11, 4-A8, 5-E2, 2-H2, 3-G6, 3-G7, 8-A7, 8-A9, 8-C9 and 8-D9.
(§3) Both full length PLXDC1 and Domain A deleted PLXDC1 (PLXDC1-dA) have an epitope tag on the N-terminus.

[2] = target: T2, Domain A-deleted PLXDC1 (PLXDC1-dA) (Homo sapiens, UniProt Q8IUK5); assay: Domain A binding specificity: binding to Domain A-deleted PLXDC1 expressed in transfected cells; conditions: for binding to PLXDC1 mutant with Domain A deleted: antibodies of Table 3 tested for ability to bind Domain A; for binding to Domain A-deleted PLXDC1 (PLXDC1-dA): transfected into a cell line that does not express PLXDC1, FIG. 3-4
T2 construct: expressed in transfected cells
Source text: as §1, §2, §3

| Molecule | binding to PLXDC1 [1] | binding to full length PLXDC1 (PLXDC1-Full) [1] | binding to PLXDC1 mutant with Domain A deleted [2] | binding to Domain A-deleted PLXDC1 (PLXDC1-dA) [2] |
| --- | --- | --- | --- | --- |
| A010: VH SEQ ID NO:176, VL SEQ ID NO:177; Domain A-binding PLXDC1-activating antibody (antibody, V domains shown) VH: QVQLVQSGAEVKKPGSSVKVSCKASGGTFSDEAIHWVRQAPGQGLEWMGRIIPVLGIASYAQKFQGRVTITADESTSTAYMELSSLRSEDTAVYYCARGLSRRAFYFDYWGQGTLVTVSS VL: DIQMTQSPSSLSASVGDRVTITCRASQTIGNYLNWYQQKPGKAPKLLIYVASSLQSGVPSRFSGSGSGTDFTLTISSLQPEDFATYYCQQSYRYPYTFGQGTKVEIK | able to bind PLXDC1 | – | not the mutant with Domain A deleted | – |
| A005: VH SEQ ID NO:70, VL SEQ ID NO:71; Domain A-binding PLXDC1-activating antibody (antibody, V domains shown) VH: QVQLVESGGGVVQPGRSLRLSCAASGFTFSDYGMHWVRQAPGKGLEWVAVISYDGSRKYYANSVKGRFTISRDNSKNTLYLQMNSLRAEDTAVYYCARGSYSDGFDVWGQGTLVTVSS VL: DIQMTQSPSSLSASVGDRVTITCRASQSISRYLNWYQQKTGKAPKLLIYGASSLQSGVPSRFSGSGSGTDFTLTISSLQPEDFATYYCQQSYSTPYTFGQGTKVEIK | able to bind PLXDC1 | only bound to full length PLXDC1 | not the mutant with Domain A deleted | did not bind to Domain A-deleted PLXDC1 |
| A001: VH SEQ ID NO:38, VL SEQ ID NO:39; Domain A-binding PLXDC1-activating antibody (antibody, V domains shown) VH: EVQLLESGGGLVQPGGSLRLSCAASGFTFSSYAMSWVRQAPGKGLEWVSTIYASGATTYYADSVKGRFTISRDNSKNTLYLQMNSLRAEDTAVYYCARLKLYHAAFDIWGQGTLVTVSS VL: DIQMTQSPSSLSASVGDRVTITCRASQDISSYLNWYQQKPGKAPKLLIYTASSLQSGVPSRFSGSGSGTDFTLTISSLQPEDFATYYCQQSYSYPLTFGQGTKVEIK | able to bind PLXDC1 | only bound to full length PLXDC1 | not the mutant with Domain A deleted | did not bind to Domain A-deleted PLXDC1 |
| A004: VH SEQ ID NO:20, VL SEQ ID NO:21; Domain A-binding PLXDC1-activating antibody (antibody, V domains shown) VH: QVQLVESGGGVVQPGRSLRLSCAASGFTFSDYGMHWVRQAPGKGLEWVAVISYEGSNEYYADSVKGRFTISRDNSKNTLYLQMNSLRAEDTAVYYCARGSEGSGFDVWGQGTLVTVSS VL: DIQMTQSPSSLSASVGDRVTITCRASQRISNYLNWYQQKPGKAPKLLIYAASSLQSGVPSRFSGSGSGTDFTLTISSLQPEDFATYYCQQSYSPPYTFGQGTKVEIK | able to bind PLXDC1 | only bound to full length PLXDC1 | not the mutant with Domain A deleted | did not bind to Domain A-deleted PLXDC1 |
| A007: VH SEQ ID NO:112, VL SEQ ID NO:113; Domain A-binding PLXDC1-activating antibody (antibody, V domains shown) VH: EVQLLESGGGLVQPGGSLRLSCAASGFTFRNYAMSWVRQAPGKGLEWVSSISGGGINTYYADSVKGRFTISRDNSKNTLYLQMNSLRAEDTAVYYCARVRSYSGPGYFDYWGQGTLVTVSS VL: EIVMTQSPATLSVSPGDRATLSCRASRSVSSNLAWYQQKPGQAPRLLIYGASTRATGIPARFSGSGSGTEFTLTISSLQSEDFAVYYCQQYYNWPLTFGQGTKVEIK | able to bind PLXDC1 | only bound to full length PLXDC1 | not the mutant with Domain A deleted | did not bind to Domain A-deleted PLXDC1 |

More lines, now with the values ahead:

| binding to PLXDC1 [1] | binding to full length PLXDC1 (PLXDC1-Full) [1] | binding to PLXDC1 mutant with Domain A deleted [2] | binding to Domain A-deleted PLXDC1 (PLXDC1-dA) [2] | Molecule |
| --- | --- | --- | --- | --- |
| able to bind PLXDC1 | only bound to full length PLXDC1 | not the mutant with Domain A deleted | did not bind to Domain A-deleted PLXDC1 | A002: VH SEQ ID NO:82, VL SEQ ID NO:83; Domain A-binding PLXDC1-activating antibody (antibody, V domains shown) VH: EVQLLESGGGLVQPGGSLRLSCAASGFTFKNYAMSWVRQAPGKGLEWVSAISASGGYTYYADSVKGRFTISRDNSKNTLYLQMNSLRAEDTAVYYCARGRWGAFDYWGQGTLVTVSS VL: QSVLTQPPSVSGAPGQRVTISCTGSSSNIGSGYDVHWYQQLPGTAPKLLIYGNRNRPSGVPDRFSGSKSGTSASLAITGLQAEDEADYYCQSYDSSLKTWVFGGGTKLTVL |
| able to bind PLXDC1 | – | not the mutant with Domain A deleted | – | A008: VH SEQ ID NO:116, VL SEQ ID NO:117; Domain A-binding PLXDC1-activating antibody (antibody, V domains shown) VH: EVQLLESGGGLVQPGGSLRLSCAASGFTFSNYAMSWVRQAPGKGLEWVSAISGGGSRTYYADSVKGRFTISRDNSKNTLYLQMNSLRAEDTAVYYCAREARVLGYSLDYWGQGTLVTVSS VL: DIQMTQSPSSLSASVGDRVTITCRASQRIGKYLNWYQQKPGKAPKLLIYAASSLQSGVPSRFSGSGSGTDFTLTISSLQPEDFATYYCQQSYSYPLTFGQGTKVEIK |

Reference: patent US20250333497A1, “ACTIVATING ANTIBODIES OF RECEPTOR PROTEINS PLXDC1 AND PLXDC2” (THE REGENTS OF THE UNIVERSITY OF CALIFORNIA, priority 2022, published 2025)
